Experimental data taken from publication PMC2796180.

Target: GFP-tagged mProVII chains (in the FRET assay) (mouse)
Test: FRET or BRET

## RFP-tagged wild type mouse mini-procollagen VII α chain (domain or fragment)
  FRET efficiency EF: 5.83%
